Results on one protein are retold here after ChEMBL document CHEMBL2074044, “Two distinct mechanisms for bilirubin glucuronide transport by rat bile canalicular membrane vesicles. Demonstration of defective ATP-dependent transport in rats (TR-) with inherited conjugated hyperbilirubinemia” (J Clin Invest, 1992).

Substrate in the data set: C=CC1=C(C)/C(=C/c2[nH]c(Cc3[nH]c(/C=C4\NC(=O)C(C)=C4C=C)c(C)c3CCC(=O)O[C@@H]3O[C@@H](C(=O)O)[C@H](O)[C@@H](O)[C@@H]3O)c(CCC(=O)O[C@@H]3O[C@H](C(=O)O)[C@H](O)[C@H](O)[C@@H]3O)c2C)NC1=O
The data set is described as follows: TP_TRANSPORTER: uptake in bile canalicular membranes from Wistar rat. It is filed as functional, cell membranes, Bile canalicular membrane.

B1: ATP-binding cassette sub-family C member 2 (Rattus norvegicus) (protein)
chain: MDKFCNSTFWDLSLLESPEADLPLCFEQTVLVWIPLGFLWLLAPWQLYSVYRSRTKRSSITKFYLAKQVFVVFLLILAAIDLSLALTEDTGQATVPPVRYTNPILYLCTWLLVLAVQHSRQWCVRKNSWFLSLFWILSVLCGVFQFQTLIRALLKDSKSNMAYSYLFFVSYGFQIVLLILTAFSGPSDSTQTPSVTASFLSSITFSWYDRTVLKGYKHPLTLEDVWDIDEGFKTRSVTSKFEAAMTKDLQKARQAFQRRLQKSQRKPEATLHGLNKKQSQSQDVLVLEEAKKKSEKTTKDYPKSWLIKSLFKTFHVVILKSFILKLIHDLLVFLNPQLLKLLIGFVKSSNSYVWFGYICAILMFAVTLIQSFCLQSYFQHCFVLGMCVRTTVMSSIYKKALTLSNLARKQYTIGETVNLMSVDSQKLMDATNYMQLVWSSVIQITLSIFFLWRELGPSILAGVGVMVLLIPVNGVLATKIRNIQVQNMKNKDKRLKIMNEILSGIKILKYFAWEPSFQEQVQGIRKKELKNLLRFGQLQSLLIFILQITPILVSVVTFSVYVLVDSANVLNAEKAFTSITLFNILRFPLSMLPMVTSSILQASVSVDRLERYLGGDDLDTSAIRRVSNFDKAVKFSEASFTWDPDLEATIQDVNLDIKPGQLVAVVGTVGSGKSSLVSAMLGEMENVHGHITIQGSTAYVPQQSWIQNGTIKDNILFGSEYNEKKYQQVLKACALLPDLEILPGGDMAEIGEKGINLSGGQKQRVSLARAAYQDADIYILDDPLSAVDAHVGKHIFNKVVGPNGLLAGKTRIFVTHGIHFLPQVDEIVVLGKGTILEKGSYRDLLDKKGVFARNWKTFMKHSGPEGEATVNNDSEAEDDDDGLIPTMEEIPEDAASLAMRRENSLRRTLSRSSRSSSRRGKSLKNSLKIKNVNVLKEKEKEVEGQKLIKKEFVETGKVKFSIYLKYLQAVGWWSILFIILFYGLNNVAFIGSNLWLSAWTSDSDNLNGTNNSSSHRDMRIGVFGALGLAQGICLLISTLWSIYACRNASKALHGQLLTNILRAPMRFFDTTPTGRIVNRFSGDISTVDDLLPQTLRSWMMCFFGIAGTLVMICMATPVFAIIIIPLSILYISVQVFYVATSRQLRRLDSVTKSPIYSHFSETVTGLPIIRAFEHQQRFLAWNEKQIDINQKCVFSWITSNRWLAIRLELVGNLVVFCSALLLVIYRKTLTGDVVGFVLSNALNITQTLNWLVRMTSEAETNIVAVERISEYINVENEAPWVTDKRPPADWPRHGEIQFNNYQVRYRPELDLVLKGITCNIKSGEKVGVVGRTGAGKSSLTNCLFRILESAGGQIIIDGIDVASIGLHDLRERLTIIPQDPILFSGSLRMNLDPFNKYSDEEVWRALELAHLRSFVSGLQLGLLSEVTEGGDNLSIGQRQLLCLGRAVLRKSKILVLDEATAAVDLETDSLIQTTIRKEFSQCTVITIAHRLHTIMDSDKIMVLDNGKIVEYGSPEELLSNRGSFYLMAKEAGIENVNHTEL
Take B1: the Km is 71 µM.

As usually defined, the Km is the substrate concentration at which the rate is half of its maximum.
